Data: patent US20220281976A1 (Alector, published 2022)

T1: mouse CD33 Fc fusion protein (mouse, UniProt Q63994 18-240, limits assumed)
T1 construct: also called mCD33-Fc
T1 sequence: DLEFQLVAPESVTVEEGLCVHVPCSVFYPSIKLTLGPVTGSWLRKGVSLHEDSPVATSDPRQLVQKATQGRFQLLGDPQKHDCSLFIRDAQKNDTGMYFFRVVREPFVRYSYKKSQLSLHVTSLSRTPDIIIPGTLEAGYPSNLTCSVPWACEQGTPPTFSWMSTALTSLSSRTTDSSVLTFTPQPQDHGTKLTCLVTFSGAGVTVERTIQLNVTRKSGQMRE


Key:
[1] = target: T2, human monomeric His tagged CD33 protein (human, UniProt P20138 18-259); assay: ForteBio BLI or MSD-SET, IgG, monomeric antigen;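 also: BLI: antibodies captured on AHQ sensors, 100 nM antigen association 5 min, dissociation 5 min, 1:1 fit. MSD-SET: antigen fixed at 50 pM, antibody titrated, quadratic fit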
T2 construct: also called hCD33-His
T2 sequence (P20138 18-259 limits assumed): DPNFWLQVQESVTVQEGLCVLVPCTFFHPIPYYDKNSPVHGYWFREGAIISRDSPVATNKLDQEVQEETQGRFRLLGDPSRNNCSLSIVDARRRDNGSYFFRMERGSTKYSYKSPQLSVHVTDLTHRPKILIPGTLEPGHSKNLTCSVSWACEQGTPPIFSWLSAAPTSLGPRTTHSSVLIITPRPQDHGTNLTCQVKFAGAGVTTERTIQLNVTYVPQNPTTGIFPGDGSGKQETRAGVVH

[2] = target: T3, human CD33 (human, UniProt P20138 18-364); assay: flow cytometry, human primary macrophages;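 also: binding of CD33 antibodies at 10 µg/ml to human primary macrophages, 1 h on ice, detected with PE-labelled secondary antibody by flow cytometry, reported as MFI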
T3 construct: CD33 on human primary dendritic cells, macrophages, monocytes and T cells and on CHO cells expressing recombinant human CD33; also called Siglec-3; hCD33
T3 sequence (P20138 18-364): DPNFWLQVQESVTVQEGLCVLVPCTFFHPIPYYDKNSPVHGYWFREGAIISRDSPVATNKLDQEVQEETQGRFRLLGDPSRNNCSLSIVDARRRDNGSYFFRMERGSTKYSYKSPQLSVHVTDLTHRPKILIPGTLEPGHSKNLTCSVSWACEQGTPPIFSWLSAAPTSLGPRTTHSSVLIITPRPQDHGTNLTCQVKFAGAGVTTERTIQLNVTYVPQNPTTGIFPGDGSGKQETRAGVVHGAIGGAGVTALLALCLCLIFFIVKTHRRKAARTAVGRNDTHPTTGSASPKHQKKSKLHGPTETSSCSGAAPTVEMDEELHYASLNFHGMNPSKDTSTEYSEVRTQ

[3] = target: T3, human CD33; assay: cell-based or functional assay
[4] = target: T1, mouse CD33 Fc fusion protein; assay: ForteBio BLI or MSD-SET
[5] = target: T3, human CD33; assay: flow cytometry, human primary dendritic cells;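 also: binding of anti-CD33 antibodies (10 ug/ml, 1 h on ice) to human primary dendritic cells, detected with a PE-labelled secondary antibody, reported as flow cytometry MFI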
[6] = target: T4, human CD33 Fc fusion protein (human, UniProt P20138 18-259); assay: ForteBio BLI or MSD-SET, IgG, avid;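 also: Anti-CD33 IgG affinity by BLI, IgG captured on AHQ sensors with antigen in solution and a one-to-one kinetic fit, or by MSD solution equilibrium titration with quadratic fit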
T4 construct: also called hCD33-Fc; human CD33/Fc chimera (R&D Systems)
T4 sequence (P20138 18-259 limits assumed): as the sequence (P20138 18-259 limits assumed) above
Method: The binding affinity of each anti-CD33 antibody was determined by measuring their KD by ForteBio or MSD-SET. […] Briefly, ForteBio affinity measurements were performed by loading IgGs on-line onto AHQ sensors. Sensors were equilibrated off-line in assay buffer for 30 min and then monitored on-line for 60 seconds for baseline establishment. Sensors with loaded IgGs were exposed to 100 nM antigen for 5 minutes, then transferred to assay buffer for 5 min for off-rate measurement. Kinetics were analyzed using the 1:1 binding model.
Solution equilibrium titrations (SET) were performed in PBS+0.1% IgG-Free BSA (PBSF) with antigen held constant at 50 pM and incubated with 3-to 5-fold serial dilutions of antibody starting at 10 nM. Antibodies (20 nM in PBS) were coated onto standard bind MSD-ECL plates overnight at 4° C. or at room temperature for 30 min. Plates were then blocked for 30 min with shaking at 700 rpm, followed by three washes with wash buffer (PBSF+0.05% Tween 20). SET samples were applied and incubated on the plates for 150s with shaking at 700 rpm followed by one wash. Antigen captured on a plate was detected with 250 ng/mL sulfotag-labeled streptavidin in PBSF by incubation on the plate for 3 min. The plates were washed three times with wash buffer and then read on the MSD Sector Imager 2400 instrument using 1× Read Buffer T with surfactant. The percent free antigen was plotted as a function of titrated antibody in Prism and fit to a quadratic equation to extract the KD. To improve throughput, liquid handling robots were used throughout MSD-SET experiments, including SET sample preparation.

[7] = target: T3, human CD33; assay: flow cytometry, human primary monocytes; set-up: reference not given here;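 also: binding of anti-CD33 antibodies at 10 ug/ml to human primary monocytes, 1 h on ice, detected by PE-labelled secondary antibody, flow cytometry readout as mean fluorescence intensity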
[8] = target: T4, human CD33 Fc fusion protein; assay: RBC adhesion to plate-bound CD33-Fc; antibody 0.5 ug/ml;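 also: Plate-coated CD33-Fc preincubated 1 h with antibody, then red blood cells added for 1 h at room temperature, adherent cells lysed and quantified via peroxidase activity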
Method: Briefly, 5 ug/ml CD33-Fc was coated overnight at RT in 96 well Immunolon plates, then washed with PBS, blocked for one hour with binding buffer (PBS containing %0.25 BSA 1 mM CaCl₂). CD33 antibodies (0.5 ug/ml or 1.0 ug/ml) or Fabs (25 ug/ml) were bound for one hour at RT with gentle rocking. After removal of unbound antibody, red blood cells were added to each well at a concentration of 3.0×10⁶ cells per ml and incubated at RT for one hour. Unbound RBCs were then carefully washed off 3× with PBS, and water was added to each well for hypotonic lysis of bound RBCs. The plate was transferred to −80° C. for 10 minutes, followed by 37° C. for 15 minutes. Bound RBCs were detected by peroxidase activity, followed by 2N sulfuric acid to stop the reaction.

[9] = target: T3, human CD33; assay: flow cytometry, human primary T cells;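 also: binding of anti-CD33 antibodies at 10 ug/ml to human primary T cells, 1 h on ice, detected with PE-labelled secondary antibody, read as flow cytometry MFI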
[10] = target: T4, human CD33 Fc fusion protein; assay: RBC adhesion to plate-bound CD33-Fc; antibody 1.0 ug/ml;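 also: red blood cells adhering to plate-coated CD33-Fc after 1 h antibody pretreatment, then 1 h at room temperature, bound cells read as peroxidase activity after lysis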

Binder | Kd [1] | Macrophage MFI [2] | Percent CD33 Surface Expression, DC % CD33 [3] | Percent CD33 Surface Expression, Macrophage % CD33 [3] | Percent CD33 Surface Expression, Monocyte % CD33 [3] | binding result [4] | DC MFI [5] | Kd [6] | Monocyte MFI [7] | Percent RBC Binding to CD33 [8] | T cell MFI [9] | Percent RBC Binding to CD33 [10]
C-3 (antibody, V domains shown, human IgG1) VH: QVQLVQSGAEVKKPGSSVKVSCKASGGTFSNYAISWVRQAPGQGLEWMGGIIPIFGTANYAQKFQGRVTITADESTSTAYMELSSLRSEDTAVYYCARDTGTYVTGDGMDVWGQGTTVTVSS VL: EIVMTQSPATLSVSPGERATLSCRASQSVSSNLAWYQQKPGQAPRLLIYGASTRATGIPARFSGSGSGTEFTLTISSLQSEDFAVYYCQQYDVWPITFGGGTKVEIK | 5.76 nM | 715 | 27.9% | 63.5% | 29.1% | no binding (tested: 100 nM) | 1520 | 1.11 nM | 109 | 14.5% | 262 | 9.8%
C-11 (antibody, V domains shown, human IgG1) VH: QVQLVQSGAEVKKPGSSVKVSCKASGGTFSNYAISWVRQAPGQGLEWMGGIIPIFGTANYAQKFQGRVTITADESTSTAYMELSSLRSEDTAVYYCARDTGTYVTGDGMDVWGQGTTVTVSS VL: EIVMTQSPATLSVSPGERATLSCRASQSVSSNLAWYQQKPGQAPRLLIYSASTRATGIPARFSGSGSGTEFTLTISSLQSEDFAVYYCQQYIVLPITFGGGTKVEIK | 7.12 nM | 795 | 23.3% | 64.3% | 41.3% | no binding (tested: 100 nM) | 1030 | 1.56 nM | 106 | 13% | 231 | 7.6%
C-10 (antibody, V domains shown, human IgG1) VH: QVQLVQSGAEVKKPGSSVKVSCKASGGTFSNYAISWVRQAPGQGLEWMGGIIPIFGTANYAQKFQGRVTITADESTSTAYMELSSLRSEDTAVYYCARDTGTYVTGDGMDVWGQGTTVTVSS VL: EIVMTQSPATLSVSPGERATLSCRASQSVSSNLAWYQQKPGQAPRLLIYGASTRATGIPARFSGSGSGTEFTLTISSLQSEDFAVYYCQQYVNLPITFGGGTKVEIK | 6.24 nM | 792 | 19.5% | 44.5% | 31.5% | no binding (tested: 100 nM) | 1230 | 1.41 nM | 107 | 13.8% | 246 | 12.3%
C-8 (antibody, V domains shown, human IgG1) VH: not shown VL: EIVLTQSPGTLSLSPGERATLSCRASQSVSSSFLAWYQQKPGQAPRLLIYGASSRATGIPDRFSGSGSGTDFTLTISRLEPEDFAVYYCQQVASPPPTFGGGTKVEIK | 6.94 nM | 980 | 42.1% | 87.3% | 51.9% | no binding (tested: 100 nM) | 1370 | 1.95 nM | 204 | 12.7% | 193 | 12.7%
C-91 (antibody, V domains shown, human IgG1) VH: EVQLVESGGGLVQPGGSLRLSCAASGFTFSSYWMSWVRQAPGKGLEWVANIKSDGSEKYYVDSVKGRFTISRDNAKNSLYLQMNSLRAEDTAVYYCARDVGGDYSGSDLASYWGQGTLVTVSS VL: DIQMTQSPSSLSASVGDRVTITCRASQSISSYLNWYQQKPGKAPKLLIYAASSLQSGVPSRFSGSGSGTDFTLTISSLQPEDFATYYCQQGYDPPLTFGGGTKVEIK | 4.26 nM | 1230 | 18.8% | 38.4% | 24.3% | no binding (tested: 100 nM) | 150 | 1.2 nM | 893 | 17.6% | 38.2 | 7%
C-109 (antibody, V domains shown, human IgG1) VH: EVQLVESGGGLVQPGGSLRLSCAASGFTFSSYWMSWVRQAPGKGLEWVANIKSDGSEKYYVDSVKGRFTISRDNAKNSLYLQMNSLRAEDTAVYYCARDVGGDYSGSDLASYWGQGTLVTVSS VL: not shown | 4.8 nM | 1240 | 30% | 38.9% | 31.1% | no binding (tested: 100 nM) | 164 | 1.24 nM | 867 | 17.6% | 247 | 8.3%
C-95 (antibody, V domains shown, human IgG1) VH: not shown VL: DIVMTQSPDSLAVSLGERATINCKSSQSVLYSSNNKNYLAWYQQKPGQAPRLLIYGASSRATGIPDRFSGSGSGTDFTLTISRLEPEDFAVYYCQQDYSSPLTFGGGTKVEIK | 71.5 nM | 369 | 87.9% |  | 83% | no binding (tested: 100 nM) | 48 | 9.65 nM | 569 | 85% | 144 | 92.3%

More lines, now with the values ahead:

Kd [1] | Macrophage MFI [2] | Percent CD33 Surface Expression, DC % CD33 [3] | Percent CD33 Surface Expression, Macrophage % CD33 [3] | Percent CD33 Surface Expression, Monocyte % CD33 [3] | binding result [4] | DC MFI [5] | Kd [6] | Monocyte MFI [7] | Percent RBC Binding to CD33 [8] | T cell MFI [9] | Percent RBC Binding to CD33 [10] | Binder
15.7 nM | 537 | 73.9% |  | 79.2% | no binding (tested: 100 nM) | 107 | 3.4 nM | 918 | 98.5% | 42.3 | 76.2% | C-92 (antibody, V domains shown, human IgG1) VH: EVQLVESGGGLVKPGGSLRLSCAASGFTFSSYSMNWVRQAPGKGLEWVSSISSSSSYIYYADSVKGRFTISRDNAKNSLYLQMNSLRAEDTAVYYCARLGATATTDYAYGMDVWGQGTTVTVSS VL: not shown
3.49 nM | 746 | 63.1% | 97.4% | 101% | no binding (tested: 100 nM) | 1120 | 1.28 nM | 178 | 76.5% | 35.7 | 80.8% | C-14 (antibody, V domains shown, human IgG1) VH: not shown VL: DIQMTQSPSSVSASVGDRVTITCRASQGISSWLAWYQQKPGKAPKLLIYAASSLQSGVPSRFSGSGSGTDFTLTISSLQPEDFATYYCQQANYFPTFGGGTKVEIK
4.17 nM | 886 | 26% | 63.4% | 33.1% | no binding (tested: 100 nM) | 1700 | 1.09 nM | 175 | 27.8% | 307 | 20% | C-9 (antibody, V domains shown, human IgG1) VH: QLQLQESGPGLVKPSETLSLTCTVSGGSISSSSYYWGWIRQPPGKGLEWIGSIYYSGSTYYNPSLKSRVTISVDTSKNQFSLKLSSVTAADTAVYYCARESGFAGLDPWGQGTLVTVSS VL: EIVLTQSPGTLSLSPGERATLSCRASQSVSSSFLAWYQQKPGQAPRLLIYGASSRATGIPDRFSGSGSGTDFTLTISRLEPEDFAVYYCQQSEDWPTFGGGTKVEIK
7.47 nM | 1080 | 23.6% | 68.5% | 54.2% | no binding (tested: 100 nM) | 1120 | 1.84 nM | 208 | 6.34% | 182 | 17.8% | C-12 (antibody, V domains shown, human IgG1) VH: EVQLLESGGGLVQPGGSLRLSCAASGFTFSNYAMSWVRQAPGKGLEWVSAISGSGGSTYYADSVKGRFTISRDNSKNTLYLQMNSLRAEDTAVYYCARDGSRYSYGLVAYGMDVWGQGTTVTVSS VL: EIVLTQSPGTLSLSPGERATLSCRASQSVSSSFLAWYQQKPGQAPRLLIYGASSRATGIPDRFSGSGSGTDFTLTISRLEPEDFAVYYCQQSQLRPTFGGGTKVEIK
